From WO2019080889A1 (dated 2019)

How the values were obtained:
[1] = target: T1, human CSF-1R protein (huCSF-1R), full length, expressed on CHO-S cells (human, UniProt P07333 20-972); test: flow cytometry on CHO cells highly expressing CSF-1R
T1 construct: whole, on cells; Also used here as the target of the monocyte proliferation assays (native receptor on human monocytes); also called CSF-1R/CHO cells; CHO cells highly expressing CSF-1R

[2] = target: T2, cynomolgus monkey CSF-1R-His (cynomolgus monkey, UniProt A0A2K5WG90 20-512); test: ELISA on cynomolgus CSF-1R-His
T2 construct: Bought protein; also called cynoCSF-1R-His; cynomolgus CSF-1R protein; not shown: His tag

B1: anti-CSF-1R chimeric antibody C11C (antibody, V domains shown)
VH: EVQLQQSGPELVKPGASVKISCKASGYTFSNYYMNWVNQRHGERLEWIGEMNPNNGDSSYNQKFKGKATLTVDKSSSTAYMELRSLTSEDSAVYYCARRSPWWFFDVWGPGTTVIVSS
VL: DIVMTQSPSSLTVTAGEKVTMSCKSSQSLLNSGNQKNSLTWYQQKPGQPPKLLIYWASTRESGVPDRFTGSGSGTDFTLTISSVQTEDLAVYYCQNDYTYPFTFGTGTKLEIK
B1: binds [1].

B2: humanized anti-CSF-1R antibody huC11 (antibody, human IgG1, kappa, V domains shown)
VH: EVQLVQSGAEVKKPGASVKVSCKASGYTFSNYYMNWVRQAPGQGLEWMGEMNPNTGDSSYNQKFKGRVTLTVDKSTSTAYMELSSLRSEDTAVYYCARRSPWWFFDVWGQGTMVTVSS
VL: DIVMTQSPDSLAVSLGERATINCKSSQSLLSSGNQKTSLTWYQQKPGQPPKLLIYWASTRESGVPDRFSGSGSGTDFTLTISSLQAEDVAVYYCQNDYTYPFTFGQGTKLEIKR
notes: Full-length chains; also called huC11 (VH-b heavy chain and VL-b light chain)
B2: binds [1].

B3: anti-CSF-1R chimeric antibody C19C (antibody, V domains shown)
VH: EVQLQQSGPELVKPGASVKISCTASAITFTDYYMNWVKQSPGKGLEWIGDIYPNNGGTTYNQKFKGKATLTVDKSSTTAYMELRSLTSEDSAVYYCAREKITMEYYYAMDYWGQGTSVTVSS
VL: DIVLTQSPASLAVSLGQRATISCRASESVSSHDIHLIHWYQQKPGQSPKLLIYAASSLESGVPARFSGSGSATDFTLNIHPVEEEDAATYFCQQSIEDPPTFGGGTKLEIK
B3: binds [1].

B4: anti-CSF-1R chimeric antibody C27C (antibody, V domains shown)
VH: EVQLQQSGAELVRPGALVKLSCKASGFNIKDYYMHWVKQRPEQGLEWIGRFDPENGDTIYDWKFQDKAIITSDTSSNTAYLHLSSLTSEDTAVYYCARSGDYMFDYWGQGTLVTVSA
VL: ETTVTQSPASLSMAIGEKVTIRCITSTGVDDDFNWYQQRPGEPPKLLISEGNTLRPGVPSRFSSSGYGTDFVFTIENMLSEDVADYFCLQSDHLPFTFGSGTKLEIK
B4: no binding [2].

B5: humanized anti-CSF-1R antibody huC19 (antibody, human IgG1, kappa, V domains shown)
VH: QVQLVQSGAEVKKPGASVKVSCKASAITFTDYYMNWVKQAPGQGLEWIGDIYPNTGGTTYNQKFKGRVTLTVDTSISTAYMELSRLRSEDTAVYYCAREKITMEYYYAMDYWGQGTLVTVSS
VL: DIQLTQSPSSLSASVGDRVTITCRASESVSSHDIHLIHWYQQKPGKAPKLLIYAASSLESGVPSRFSGSGSGTDFTLTISSLQPEDFATYFCQQSIEDPPTFGGGTKVEIKR
notes: Full-length chains; also called huC19 (VH-c heavy chain and VL-a light chain)
B5: binds [1].
